Assay: yeast display, Sf9 membrane polyspecificity reagent, FACS + sequencing; frameworks hold sequencing errors
Method in brief: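 Polyreactivity labels are assigned by the sorting gate from which each nanobody was recovered. The gates were low and high (top ~1%), set on anti-HA fluorescence for expression and streptavidin fluorescence for reagent binding. Before sorting, galactose-induced (36–48 hours) yeast display cells were stained for 1 hour at 4 °C with 10% biotinylated, detergent-solubilized Sf9 membrane reagent.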

Sequence | polyreactivity (PSR sort gate)
QVHLVESGGGLVQAGGSLRLSCAASGRTFPYTAMGSYRQAPGKERELVAAISSGGSTNYADSVKGRFTISRDNAKNTVYLQMNSLKPEDTAVYYCATKYQRRPYRYYYWGQGTQVSVSS | low polyreactivity
QVHLVESGGGLVQAGGSLRLSCAASGRTFRSYAMGWYRQAPGKERELVAAISWSGGSTYYADSVKGRFTISRDNAKNTVYLQMNSLKPEDTAVYYCAASYFYFPYTSDEGYWGQGTQVTVSS | high polyreactivity
QVHLVESGGGLVQAGGSLRLSCAASGRTFYSYTMAWYRQAPGKERELVAAINRGGSTYYADSVKGRFTISRDKAKNTVYLQMNSLKEEDTAVYYFAVGYAHSSNRRYYYQKTHGYWGQGTQVTVSS | low polyreactivity
QVHLVESGGGLVQAGGSLRLSCAASGRTIKRYAMGWYRQAPGKERELVATISRSGSSTYYADSVKGRFTISRANAMNTVYLQMNSLKPEDTAVYYCNAYVPDIWVNGYDSWGQGTQVTVSS | high polyreactivity
QVHLVESGGGLVQAGGSLRLSCAASGRTYDYYAMGWYRQAHGKERELVAAIRLISGNTYYADSVKGRFTISRDNAKNTVYLQMNSLKPEDTAVYYCARQGYVLYYYWGQGTQVTVSS | low polyreactivity
QVHLVESGGGLVQAGGSLRLSCAASGSICNPYAMGWYRQAPGKEGELVAAINRGGTSTYYADSVKGRFTISRDNAKNNVYLQMNSLKPEDTAVYYCNADYPYYEDGDTVRDDYWGQGTQVTVSS | low polyreactivity
QVHLVESGGGLVQAGGSLRLSCAASGSIFGGYAMGWSRQAPGKERELVAAISYRGASTYYADSVKGRFTISRDNAKNTVYLQMNSLKPEDTAVYYCNADDRGSTYVDFDYWGQGTQVTVSS | low polyreactivity
QVHLVESGGGLVQAGGSLRLSCAASGSIFGNNAMGWYRQAPGKERELVAAISSGGSTNYADSVKGRFTISRDNAKNTVYLQMNSLKPEDTAFYYCAKHSWSRAFSWATRLHWRYDYWGQGTQVTVSS | low polyreactivity
QVHLVESGGGLVQAGGSLRLSCAASGSIFGPYVMGWYRQAPGKEREFVAAIRGSGGSTYYADTVKGRFTISRDNAKNTVYLQMTSLKPEDTAVYYCNASLKYTLYYYWGQGTQVTVSS | high polyreactivity
QVHLVESGGGLVQAGGSLRLSCAASGSIFGYNTMGWYRQAPGKERELVAAISYSSGSTHYADSVKGRFTISRVNAKNTVYLQMNSLKPEDTAVYYSTSVRRWSFGYWGQGTQVTVSS | low polyreactivity
QVHLVESGGGLVQAGGSLRLSCAASGSIFPRNAMGWYRQAPGKERELVAAISSGGGRTYYADSVKGRFTISRDNAKNTVYLQMNSLKPVDTAVYYCAREVWGYRWLYPVYILDYWGQGTQVTVSS | high polyreactivity
QVHLVESGGGLVQAGGSLRLSCAASGSIFQPYAIRWYRQAPGKERELVAAISSSGGSTTYADSVKGRFTISRDNAKNTVYLQMTSLKPEDTAVYYCAADSADDMGYWGQGTQVTVSS | low polyreactivity
QVHLVESGGGLVQAGGSLRLSCAASGSIFSLYAMGWYRQAPGKERELVAAITRSGAGTYYADSVKGRFTISRDNAKNTVYLQLNSLKPEDTAVYYCANRTKTPTGYVWGGYDYWGQGTQVTVSS | high polyreactivity
QVHLVESGGGLVQAGGSLRLSCAASGSIFSSNTMGWYRQATGKERELVAAISWSGGRTRYADSVKGRFTISRDNAKNTVYLQMNSLKPEDNAVYYCNAGTVASTLYDVRTHFDYWGQGTQVTVSS | low polyreactivity
QVHLVESGGGLVQAGGSLRLSCAASGSIFSVYTMGWYRQATGKEREFVPSIDWSAGSTNYADSVKGRFTISRDNAKNTVYFQRNSLKPEDTADDYCARAGSSWDTLYKYYLEHDYWGQGSQVTVSS | low polyreactivity
QVHLVESGGGLVQAGGSLRLSCAASGSIFSYYAMGWYRQAPGKERELVAAISQSGGSTYYADSVKGRFTISRDNAKNTVYLQMNSLKPEDTAVNYCNAGRGTFKRYTALQYWGQGTQVTVSS | low polyreactivity
QVHLVESGGGLVQAGGSLRLSCAASGSIFSYYGMGWYRQAPGKERELVAAITRSTGSTYYADSVKGRFTISRDYAKNTVYLQMNSLKPEDTAVYYCATEYVVLWEFDYWGQGTQVTVSS | low polyreactivity
QVHLVESGGGLVQAGGSLRLSCAASGSIFTYYAMGWYRQAPGKERELVAAISSDGSTTYADSVKGRFTISRDNAKNTVYLQMNSLKPEDTAVYYCAASSYNGHGYWGQGTQVTVSS | low polyreactivity
QVHLVESGGGLVQAGGSLRLSCAASGSIFVHNAMGWYRQAPGKESELVAGISARGASTYYADSVKGRFTISRDNAKNTVYLQMKSLKPEDTAVYYCAADRIPGYRVYGFYYWGQGTQVTVSS | low polyreactivity
QVHLVESGGGLVQAGGSLRLSCAASGSIFVPYAMGWYRKAPGKERELVAAITYSDGCTYYADSVKGRFTMSRDNAKNTVYLQMNSLKPEDTAVYYCATYPQYYFRYDYWGQGTQVTVSS | high polyreactivity
QVHLVESGGGLVQAGGSLRLSCAASGSIFYIYAMGWYRQAPGKERELVAGITSGGGTYYADSVKGRFTISRDNAKNTVYLQMNSLKPEDTAVYYCAADYLYDYDYWGQGTQVTVSS | high polyreactivity
QVHLVESGGGLVQAGGSLRLSCAASGSIFYWYAMGWYRQAPGKERELVAAITWSGGSTYYADSVKGRFTISRDNAKNTVDLQMNSLKPEDTAVYYCAALVYGYPRWSGKYDYWGQVTQVTVSS | high polyreactivity

Sequence | polyreactivity (PSR sort gate)
QVHLVESGGGLVQAGGSLRLSCAASGSIIIRNAMGWYRQAPGKERELVATITRSGSTYYADSVKGRFTISRDNAKNTVYLQMNSLKPEDTAVYYFAADWPNLVEYYYWGQGTQVTVSS | high polyreactivity
QVHLVESGGGLVQAGGSLRLSCAASGSILSINGRGWSRQAPGKERELVATIDGSDGSTFYADSVKGRFTISRDNAKNTVYLQMNSLKPEDTAVYYCAAENFWQTKEYDYWGQGTQVTVSS | low polyreactivity
QVHLVESGGGLVQAGGSLRLSCAASGSNFYPYAMGWYRQEPGKERELVAAIRWRGDRTYYADSVKGRFTISRDNAKKTVYLQMNSLKPEDTGVYYCAADLSGWSTHGSWGQATQVTVSS | high polyreactivity
QVHLVESGGGLVQAGGSLRLSCAASGSTFALYGMGWYRQAPGKERELVAASTWSGTGTYYADSVKGRFTISRDNAKNTVYLQMNSLKPEDTAVYYCAADGYTTYYSEFYYWGQATQVTVSS | low polyreactivity
QVHLVESGGGLVQAGGSLRLSCAASGSTFGYYTMGWYRQAPGKERELVAAISGSGDSTYYADSVKGRFTISRDNAKNTVYLQMNSLKPEDTAVYYCAKRYYKRYNYWGQGTQVTVSS | high polyreactivity
QVHLVESGGGLVQAGGSLRLSCAASGSTFKIYAMGWYRQAPGKERELVAAITRGGSTNYADSVKGRFTISRDNAKNTVYLQMNSLKPEDTAVYYCAASYWYRRYGTYTYDYWGQGTQVTVSS | high polyreactivity
QVHLVESGGGLVQAGGSLRLSCAASGSTFQRYAMGWDRQAPGKERELDAAITIRGTRTYYADSVKGRFTISRDNAKNTVYLQMNSLKPEDTAVYYCAATYYWYGHPSRRYDYWGQGTQVTVSS | high polyreactivity
QVHLVESGGGLVQAGGSLRLSCAASGSTFRLYAMRWNRQAPGKERELVASITFSDSNTSYADSVKGRFTISRDNAKNTVYLQMNSLKPEDTAVYYCAKETSYENVVYTFDYDYWGQGTQVTVSS | low polyreactivity
QVHLVESGGGLVQAGGSLRLSCAASGSTFTYYAMGWYRQAPGKERELVAAISRRGGSTYYADSVKGRFTISRDNAKNTVYLQMNSLKPEDTAVYYCNVVIYSYGCNGRYDFWGQGTQVTVSS | high polyreactivity
QVHLVESGGGLVQAGGSLRLSCAASGSTFVTNAMGWYRQAPGKERELVAAITSGAGTYYADSVKGRFTISRDNAKNTVYLQMNSLKPEDTAVYYCAARRYYSRGRYRFGYWGQGTQVTVSS | high polyreactivity
QVHLVESGGGLVQAGGSLRLSCAASGSTFVTYAMGWYTQAPGKEREFVAAISSTGTGRTYYADSVKGRFTISRDNAKNTVYLQMNSLKPEDTAVYYCAADLYGTYDYCGQGTQVTVSS | low polyreactivity
QVHLVESGGGLVQAGGSLRLSCAASGSTFYRYAMGWYRQAPGKEREFVASISKRGGSTYYADSVKGRFTISRDNAKNTVYLQMISLKPEETAVYYCAADPKFFSGSYLYGYWGQGTQVTVSS | high polyreactivity
QVHLVESGGGLVQAGGSLRLSCAASGSTFYRYAMGWYRQAPGKERELVAAITRSGGSTYYADSVKGRFTISRDNAKNTVYLLMNSLKPEDTAVYYCAADRYYVYTFYYWGQGTQVTVSS | high polyreactivity
QVHLVESGGGLVQAGGSLRLSCAASGSTFYYNAMGWYRQAPGKERELDAAITFTGGSTYADSVKGRFTISRDNAKNTVYLQMNSLKPEDTAVYYCAAESLISWRYDYWGQGTQVTVSS | low polyreactivity
QVHLVESGGGLVQAGGSLRLSCAASGSTILFYAMGWYRQAPGKERELVATISRGGSTYYADSVKGRFTISRDNAKNTVYLEMNSLKPEDTAVYYCAARATRVTIAPRYGYWGQGTQVTVSS | low polyreactivity
QVHLVESGGGLVQAGGSLRLSCAASGSTIYYNAMGWYRQAPGKERELVAAISKSSSRTYYADSVKGRFTISRDNAKNTVYLQMNSLKTEDTAVYFCAADAVYFHFDYWGQGTQVTVSS | high polyreactivity
QVHLVESGGGLVQAGGSLRLSCAASGSTLHYYTMGWYRQEPGKERELVAAITSGGSTHYADSVKGRFTISRDNAKNTVYLQMNSLKPEDTAVYYCAVKTGKWIPRDYWGQGTQVTVSS | low polyreactivity
QVHLVESGGGLVQAGGSLRLSCAASGYIFGGYAMGWSRQAPGKEREFVAAISDISGSTYYADSVKGRFTISRDNAKNTVYLQMNSLKPEDTAVYYGGHTSTADEDYWGQGTQVTVSS | low polyreactivity
QVHLVESGGGLVQAGGSLRLSCAASGYTFGHYAMGWYRQAPGKERELVAVITSGGSTNYADSVKGRFTISRDNAKNTVYLQMNSLKPEDTAVYYCAADLYFYYVWIRDYWGQGTQVTVSS | low polyreactivity
QVHLVESGGGLVQAGGSLRLSCAASGYTFQWYDRGWYRQAPGKERELVASISWRGGSTYYADSVKGRFTISRDNAKNTVYLQMNSLKPEDTAVYYCAASLWPDYEYVYWGQGTQVTVSS | low polyreactivity
QVHLVESGGGLVQAGGSLRLSCAASGYTRFYALGWYRQAPGKERELVAAISSSGGNTYYADSVKGSFTISRDNAKNTVYLQMNSLKPEDTAVYYCAKYVSYSRTLYDYWGQGTQVTVSS | high polyreactivity

— the nanobody polyreactivity screen of Harvey et al. (2022)
